From US7182945
Like-named read-outs stand apart in the source and are kept apart here.

T1: human leukocyte elastase (hLE) (human), P08246
T1 chain: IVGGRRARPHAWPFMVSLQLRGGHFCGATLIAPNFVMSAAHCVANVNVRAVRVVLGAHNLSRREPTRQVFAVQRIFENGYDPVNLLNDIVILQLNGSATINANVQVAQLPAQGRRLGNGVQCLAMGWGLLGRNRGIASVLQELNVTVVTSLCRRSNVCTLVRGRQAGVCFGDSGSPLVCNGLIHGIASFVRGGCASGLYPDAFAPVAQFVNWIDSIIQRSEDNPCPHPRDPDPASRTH

T2: human leukocyte cathepsin G (hCG) (human), P08311
T2 chain: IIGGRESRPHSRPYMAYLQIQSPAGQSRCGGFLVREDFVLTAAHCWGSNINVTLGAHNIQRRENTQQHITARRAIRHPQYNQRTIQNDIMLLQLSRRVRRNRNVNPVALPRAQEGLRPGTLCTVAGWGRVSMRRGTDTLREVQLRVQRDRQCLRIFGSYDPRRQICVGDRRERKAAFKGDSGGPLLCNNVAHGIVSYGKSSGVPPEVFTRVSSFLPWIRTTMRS


Columns and labels:
Details in all cases: modification not given
[1] = molecular target: T1, human leukocyte elastase (hLE) (human), …
[2] = molecular target: T2, human leukocyte cathepsin G (hCG) …; assay: other enzyme inhibition
[3] = molecular target: T1, human leukocyte elastase (hLE) (human), …
[4] = molecular target: T1, human leukocyte elastase (hLE) (human), …
[5] = molecular target: T1, human leukocyte elastase (hLE) (human), …
[6] = molecular target: T1, human leukocyte elastase (hLE) (human), …
[7] = molecular target: T1, human leukocyte elastase (hLE) (human), …
[8] = molecular target: T1, human leukocyte elastase (hLE) (human), …
[9] = molecular target: T1, human leukocyte elastase (hLE) (human), …
[10] = molecular target: T1, human leukocyte elastase (hLE) (human), …
[11] = molecular target: T1, human leukocyte elastase (hLE) (human), …
[12] = molecular target: T1, human leukocyte elastase (hLE) (human), …; assay: other enzyme inhibition
[13] = molecular target: T1, human leukocyte elastase (hLE) (human), …
[14] = molecular target: T1, human leukocyte elastase (hLE) (human), …
[15] = molecular target: T1, human leukocyte elastase (hLE) (human), …

Binder | Ki [2] | further results
EILIFWSVDI [peptide 26] | – | Ki [1]: 2 µM
ATKRQDNEILIFWSKDIGYSFTVGGSEIL [CRP55-83 (peptide 17)] | 5.5 µM | Ki [3]: 7.3 µM
EILIFWSADI [peptide 25] | – | Ki [4]: 3 µM
EILIFWSKEIGYSFT [peptide 23] | 0.85 µM | Ki [5]: 0.55 µM
FSYATKRQDNEILIF [CRP52-66 (peptide 4)] | > 200 µM | –
ILIFWSKDIGYSFT [CRP63-76 (peptide 11)] | 15 µM | Ki [6]: 4.5 µM
GYSFTVGGSEILFEV [CRP72-86 (peptide 8)] | > 200 µM | –
TFSYGIDKSWFILIE [peptide 24] | – | Ki [7]: 10 µM
EILIFWSKDIGYSFT [CRP62-76 (peptide 6)] | 0.25 µM | Ki [8]: 0.18 µM
WSKDIGYSFTVGGSE [CRP67-81 (peptide 7)] | > 200 µM | –
EILIFWSKDI [CRP62-71 (peptide 14)] | 6 µM | Ki [9]: 6.7 µM
DILIFWSKDIGYSFT [peptide 18] | 2.6 µM | Ki [10]: 2.2 µM
EILIFWSKDIGY [CRP62-73 (peptide 13)] | 4 µM | Ki [11]: 1.1 µM
LHFYTELSSTRGYSI [CRP37-51 (peptide 1)] | – | Ki [12]: > 200 µM
ILFEVPEVTVAPVHI [CRP82-96 (peptide 10)] | 150 µM | Ki [13]: 55 µM
EILIFWPKDIGYSFT [peptide 19] | 30 µM | –
EILIFWSKAIGYSFT [peptide 22] | 5.5 µM | Ki [14]: 3 µM
VGGSEILFEVPEVTV [CRP77-91 (peptide 9)] | > 200 µM | –
KRQDNEILIFWSKDI [CRP57-71 (peptide 5)] | 180 µM | Ki [15]: 85 µM
